Results taken from US20240025992A1.

Target: human CD3 (CD3 epsilon as part of the T cell receptor complex) on cells (human) (UniProt P07766)
Experiment: flow cytometry on Jurkat cells, 10 nM antibody

human CD3 (CD3 epsilon as part of the T cell receptor complex) on cells (human), sequence (P07766 23-207 limits assumed, one chain of several): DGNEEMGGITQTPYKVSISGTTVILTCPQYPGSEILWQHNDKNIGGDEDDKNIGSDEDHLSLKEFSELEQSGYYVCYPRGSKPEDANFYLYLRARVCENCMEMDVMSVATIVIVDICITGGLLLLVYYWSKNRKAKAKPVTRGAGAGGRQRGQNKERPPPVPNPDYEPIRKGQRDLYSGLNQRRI

Substance UCHT1 (antibody) has an MFI (arbitrary units) of 89200.
